The series relates to MM1s (multiple myeloma) cell genome. Put plainly: ctDNA coculture with MM1s cells, whole genome sequencing: genomic insertion sites, transposons at insertion points and SNVs (multiple myeloma). The series is classed as cell-based, human. The note with it: multiple myeloma; for Gene: gene at identified genomic insertion site; for Location / Chr position: identified genomic insertion site; for Location: chromosome; for No. SNP: number of single nucleotide variants (SNVs or SNPs) identified. How it is done: The integration of ctDNAs into the host cell genome was evaluated. ctDNA was extracted from patient plasma, cultured for 24 hours with cells of a matching cancer cell type or non-matching cancer cell type, and whole genome sequencing was performed. The cell lines used were MM1s (multiple myeloma, MM) and MIA (pancreatic cancer, PC).
Single nucleotide variants (SNVs) unique to the ctDNA that were found in the host cell genome under matching coculture conditions were identified.
The sequence data was used to reconstruct genomic contigs for each experimental condition by de novo assembly. […] Coculture contigs carrying a ctDNA insertion were identified using NucDiff analysis. BLAST alignment analysis further validated the gain of ctDNA fragments in coculture conditions and identified the transition points of ctDNA insertion (FIGS. 3A-3C). […] The remaining 20% inserted into a chromosomal location distinct from their site of origin.
Experiments were designed to identify the presence of transposons in ctDNA fragments. To map ctDNA genomic junctions more precisely, a PACBIO probe was ligated to multiple myeloma and pancreatic cancer ctDNA samples to label their 5′ and 3′ ends. Whole-genome sequencing of DNA from cells with ctDNA genomic integration was done using the Illumina platform. De novo assembly was performed on the sequencing output. ctDNA contigs containing PACBIO adaptor were then matched to those contigs containing inserted ctDNA sequences identified in the coculture experiments. Transposable element on ctDNA sequences at the insertion points (<100 nucleotides from transition point between cell and ctDNA) were detected and classified using RepeatMaster.
A search was conducted for transposons that preferentially target cells of matching tumor types. The lists of transposons identified at the ctDNA insertion point in matching and mismatched coculture conditions were compared (e.g., MM ctDNA with MM cells or PC cells). Transposons were selected that were uniquely or preferentially inserted in the matching conditions.
In multiple myeloma, AluSp, MER11, MER11C, AluJb, and L2a, among other subfamilies of retrotransposons were identified at the MM ctDNA insertion sites (FIG. 5B and TABLE 7).
Whole-genome sequencing and Whole exon sequencing: ctDNA was extracted from 10 MM and 10 PC patients. DNA from CD138 (+) cells and from cell lines used in in vitro experiments (MM1s and MIA) was extracted using Blood & Cell Culture DNA Mini Kit (Quiagen, MD). DNA from […] paraffin embedded pancreatic tumors was obtained using QIAamp DNA FFPE Tissue Kit Print (Qiagen, MD).
After extraction, ctDNA was ligated to the PACBIO adaptor ([…]) using the ABM DNA Library Prep Kit for Illumina Sequencing (Applied Biological Materials Inc. Canada). PACBio-labeled ctDNA and regular ctDNA were subjected to standard methods for library preparation and sequencing using Illumina and Agilent protocols, respectively. Applied Biological Materials Inc. prepared the libraries and performed whole-exon and -genome sequencing. The average target coverage was 50×.
Identification of transposable elements and its nucleotide variants: To determine the locations of transposable-like regions in contigs, sequences were analyzed and transposable elements (TEs) were identified and classified using RepeatMasker version 4.1.0 and the Dfam database (release 3.1) of repetitive DNA families was used as a reference for identifying repeats in ctDNA contig sequences that were part of qualifying structural events. For each repeat sequence identified by RepeatMasker, the overall frequency of the specific repeat (e.g., for AluSp or L1) and their parent class (e.g., SINE) was computed.
Once the TE elements were identified, hit repeats/TE sequences, unique contigs for all samples, and insertion sequence were aligned with MAFFT software version. […]

B1: 22 (nucleic acid, listed as Homo sapiens)
chain: CAGCGCAAGTAATATATCCTGGAATTGGAAGCAGAATGGGAACTATGGACTCAGTGAAGATTGTTCTGGACATTATTTGATTCTTCTTTCTCGCTGCCAATTGGATACTTTTTTTTTTTTTTGAGACAGAGTCT
Turning to B1, the Gene entry was “TBL1XR1”, the Location entry is recorded as “Chr3”, the Chr position was 176878250 and the “No. SNP” value is 1.

B2: 13 (nucleic acid, listed as Homo sapiens)
chain: TATCGAAAATTCACCCCCGATATTCACGTAGGTTCTTTTCTATTTTCCCTAAGCGTCGGCAGGTTTGAGAAATAAAGGGACAGAGTACAAAAGAGAGAAATTTTAAAGCTGGGCGTCCGGGGGAGACATCACATGTTGGTAGGTTCCATGATGCCCCACAAGCCGTAAAAACCAGCAAGTTTTTATTAGTGATTTTCAAAAGGGGAGGGAGTGTACGAATAGGTGTGGGTCACAGAGATCACGTGCTTCACAAGGTAATAGAATATCACAAGGCAAATGGAGGCAGGGCGAGATCACAGGACCACAGGACCGGGGTGAAATTAAAATTGCTAATGAAGTTTTGGGCACCATTGTCATTGATAACATCTTATCAGGAGACAGGGTTTGAGAGACAACCGGTCTGACCAAAATTTATTAGGTGGGAATTTCCTCGTCCTAATAAGCCTGGGAGTGCTATGGGAGACTGGGGCTTATTTCATCCCGTAGAGGCAACCATAAAAGACAGGCCCAAGCGGCCATTTAGAGCCTCCCAGGACATTCTCTTTCTCAGGGTGTTCCTTGCTGAGAAAAAGAATTCAGATATTTCTCCATTTGCTTTTGAAAGAAGAGAAATATGGCTCTGTTCCCGGCTCACGGCGCAGATTTAAGGTTATCTCCTTTTCCCTGAACAATTGCTGTTATCCTGTTCTTTTTTCAAGGTGCCCAGATTTCATATTGTTCAAACACACATGCTTACAATTTGTGCAGTTAAGCAATATCACAGGGTCCTGAGGGACATACATCCTCCTCAGCTGACAGGATTAAGAGATTAAAGTAAAGACAGGCATAGGAAATCACAAGGGTATTGATTGGGGAAGTGATAAGTGTCCATGAAATCTTCACAATTTATGTTTAGAGATTGCAGTAAAGACAGGCATAAGAAATTATAAAAGTATTAATTTGGGGAACTAATAAATGTCCATGAAATCTTCACAATCCACGTTCTTCTGCCATGGCTTCAGCCGGTCCCTCCGTTCGGGGTCCCTGACTTCCCGCAACA
As for B2, the Gene result is recorded as “none”; the Location entry was “Chr14/ and Chr3”; the “No. SNP” value worked out at 4.

B3: 21 (nucleic acid, listed as Homo sapiens)
chain: CAGCGCAAGTAATATATCCTGGAATTGGAAGCAGAATGGGAACTATGGACTCAGTGAAGATTGTTCTGGACATTATTTGATTCTTCTTTCTCGCTGCCAATTGGATACTTTTTTTTTTTTTTTGAGACAGAGTCT
Regarding B3, the Gene entry is recorded as “TBL1XR1”, the Location result was “Chr3”, the Chr position amounted to 176878250 and the “No. SNP” value is 1.

B4: 23 (nucleic acid, listed as Homo sapiens)
chain: TTCATCTTACAGAGATAAACATTTATCTTGATTCAGCAGTTTGGAAACACTGTTTTTATCCATTCTGTGAATGGACATTTGGGAGTTCATTAAGGCACACATGAAAAGGTGTATATCCCAGGGTAAAAACTAGAAGGAAGCTATCTGAGAAACCACTCTGTGGTGTGTGCATTGATCTCGCTGATTTAAAGCTTTCTTTTGATTCAGCAGTTTGGAATCACTGTTTGTGCTCATTCTGTAAATGGATATTTGGGAGCTCATTGAGGTCAATGGCAAAAAAGTGAATAACTGAGGATAAAAACTAGAAATAAGCTATCTGAGAAACGGATTTATGATGTGTGCATTCATCTCGCAAAATTAAACATTTCTTTTCCTTCAACAGTTTGGAAACACGGTTTTTATAGGATCTGCAAAGGGATATTTTGGAGCACATTGAGGTCTATGGTGTAAAAGAAAATATCTTCAGATAAAACCTAGAAAGAAGCTTTCTGAGAAATTGCATTTTGATGTGTGCATTCATCTCACAGAGTTAATACTTTTTTTTGATTCACCAGTGTGGATACACTGTTTTTGTCCATTCTGCTAATGGACCTTTGGGGGCTCATTTAGGCCAATGGCAAAAAAGTGAATATCCCAGGATAAAAACTAGAAGGAAGGTATCTGAGAAACTGCTATGTGATGTGTGCCATCATCTCACAGTCTTAAAAGTTTCTTTTCATTCACCAGTTTGGAAACAGTGTTTTTGTAGAATCTGCAAAGTCATATTTTTGAGT
For the molecule B4, the Location result is listed as “Chr16”, the Chr position was 32534349 and the “No. SNP” value was found to be 9.

B5: 20 (nucleic acid, listed as Homo sapiens)
chain: TTCTTCTCACGGAGTGAAACTTTTCCTTTGATTGAGCAGTTTCGAAACTCTCTTTTTGTAAAATCTGCAAGTGAACATTTGGAGTGCTTTGTGGCCTATGATAGAAAAGGAAATATTTTCACTTAAAATCTAGACAGAAGCAATCTGAGAAACTTCTTTGTGATGTTTGTATTCATCTTACATAGTTAAACCTTTCTTTTGATTGAGCAGTTTTGAAACTCTCTTTTTGTCGAATCTGTAAGAGGACATTTGGAGTGCTTTCAGGCCTATGGTGAAAAAGGAAGTATCTTCTCATGAAAACTAGACAGAAGAATTCAGACAAACTTCTTTGTGATGTGTGCATTTATCTCACAGACTTGAACCTTTCTTTTGATTGAGCAGTTTGAAACACTCTTTTTGTAGAATCTGCAAGTGGACATTTGGAGCACGTGGAGGCCTATAGTGGAAATGGAAATGTCTTCACACTAAAAACTAGACAGAAGAATTCTGAGAAACTTCTTTGTGATCTTTGCATTCATCTCACAGAGTTGAACCTTTCTTTTCATTGAGCAGTTTGAAAACACTCTTTTTGTAGAATCGGCAAGTGGACATTTGGAACGCATTGCAGACTATGATGGAAAAGGAAATATCTCCA
For B5, the Gene result is “AK311573”, the Location entry was “Chr21”, the Chr position turned out to be 10752909 and the “No. SNP” value stood at 24.

B6: 24 (nucleic acid, listed as Homo sapiens)
chain: GATGAATGCACATATCACAAAAAGTTTCTCAGATTGCTTCTGTCTAGATTTTATGTGAAGTTATTTCCTTTTCTACCATAGAACCCAAAGCACTTATAATGTCCCCTTGCAGATTCTACAAAAAGAATGTTTCAAAACTGCTCAATCAAAAGAAAGGTTCAAATTTGTGAGATGAATGCTCGCATCACCAAGAAGTTTCTCAAAATACTTCTGTCTAGTTTTTATGTGAAGACATTTCTTTTTCCGTGATAGGTCTCAAAATGATCAAAATTTCCACTTGCAAATTCTACAAAAAGAGAGTTTCAAAGCTGCTCAATCAAAAGAAAGGTTTATATCTGTGAGATGAACACACACTTCACAAAGCAGTTTCTAAGATTTCTTCTGCCTAGATTTTATGTAATGATATTTCCTTTTCTACCATACTTTGCAAACTGCTCCAAATGTCCACCTGTAGATTCTACAAAAACAGTGTTTCCAAACTGCTCAATCAAAAGAAAGGTTAACTCTGTGAGATGAACTCACACATCACAAAGAAGTTTCTCAGAATTCTTCTGTCTAGTTCTAATGTGAAGATATTTCCTTTTGGACCAGAGGCCCCAAGGCTATCGAAATGTCCCCTTGTAGATTCTACAAAAAGAGTATTTCAAAACTGGTCCATCAAGAGAAAGGCTCAACTCTGGGAGATGAATGCACACATCACAAAGAAGTTTCTCAGAATGCTTCTATCTAGTTTTTACATGAAGCTATTTCCTTTTCCACCATAAGCCTCAAAGCGCTCCAAATGTCCACTTGCAGGTTCTGCAAAAAGAGAGTTTCCAAAGTTCTCAATCAAAAGAAACGGTTAACTCTGTGAGATAAATGCACACATCACAAAGAAGTTTCTCAGAATTTTTCTGTCTAGTTTTTGTGTGAAGATATTTCATTTTC
Take B6: the Gene result is “AK311573”, the Location entry was “Chr21”, the Chr position is 10749086 and the “No. SNP” value is 49.

Source of the values: patent publication US20250241939A1, “NUCLEIC ACID-BASED DELIVERY SYSTEMS AND USES THEREOF” (Kodikaz Therapeutic Solutions, Inc., priority 2022, published 2025).
